Data taken from article PMC2841749.

Molecular target: native CTF cleaved from full-length rCav2.1 proteins
Assay: SDS-PAGE under mildly denaturing conditions with immunoblot

stoichiometry N: 2
Substance: native CTF cleaved from full-length rCav2.1 proteins
